Measured values as given in article PMC7692627.

Biological target: His-P10 outer capsid protein (Rice black-streaked dwarf virus (RBSDV), UniProt D2Y4Q6 1-558)
Experiment: ELONA
Details: protein: recombinant; tags: N-terminal 6xHis (pET-15b)

Binder | binding signal [A450 ratio P10/BSA]
R13 (ssDNA) DNA: ATAGTCCCTGGCGTGCTTGCATGCTTGGCCCTGCACCGCCTTCGGTCTTTCGCCGACCTCGTCGTTTATTCTATCGGGTTATAAGGATAATGCGGGGTAGAGCAGGTACGGTGTCA | 1.26
F17 (ssDNA) DNA: TGACACCGTACCTGCTCTGCCGTAGTGATCCTCCTTAACAGTGACCTATAGATCGTTCGTCGTATTTGCTTTGACAATCCTTCTCAGATACTCTCCCGAAGCACGCCAGGGACTAT | 7.55
